Paper PMC10115800, “Two assembly modes for SIN3 histone deacetylase complexes” (Cell Discovery, 2023)

T1: Pst2 with C-terminal 3× Flag-tag (S. pombe, UniProt O13919 1-1075)
T1 construct: Pst2, Sin3 homolog of S. pombe, organising subunit of the SIN3S complex; all five domains (PAH1/2/3, HID, HCR) are resolved; also called Pst2-Flag; Sin3 isoform Pst2; source: endogenous locus tagged, S. pombe; purified (ANTI-FLAG M2 resin, glycerol gradient); not shown: 3× Flag, C-terminal, kept
T1 sequence (looked up): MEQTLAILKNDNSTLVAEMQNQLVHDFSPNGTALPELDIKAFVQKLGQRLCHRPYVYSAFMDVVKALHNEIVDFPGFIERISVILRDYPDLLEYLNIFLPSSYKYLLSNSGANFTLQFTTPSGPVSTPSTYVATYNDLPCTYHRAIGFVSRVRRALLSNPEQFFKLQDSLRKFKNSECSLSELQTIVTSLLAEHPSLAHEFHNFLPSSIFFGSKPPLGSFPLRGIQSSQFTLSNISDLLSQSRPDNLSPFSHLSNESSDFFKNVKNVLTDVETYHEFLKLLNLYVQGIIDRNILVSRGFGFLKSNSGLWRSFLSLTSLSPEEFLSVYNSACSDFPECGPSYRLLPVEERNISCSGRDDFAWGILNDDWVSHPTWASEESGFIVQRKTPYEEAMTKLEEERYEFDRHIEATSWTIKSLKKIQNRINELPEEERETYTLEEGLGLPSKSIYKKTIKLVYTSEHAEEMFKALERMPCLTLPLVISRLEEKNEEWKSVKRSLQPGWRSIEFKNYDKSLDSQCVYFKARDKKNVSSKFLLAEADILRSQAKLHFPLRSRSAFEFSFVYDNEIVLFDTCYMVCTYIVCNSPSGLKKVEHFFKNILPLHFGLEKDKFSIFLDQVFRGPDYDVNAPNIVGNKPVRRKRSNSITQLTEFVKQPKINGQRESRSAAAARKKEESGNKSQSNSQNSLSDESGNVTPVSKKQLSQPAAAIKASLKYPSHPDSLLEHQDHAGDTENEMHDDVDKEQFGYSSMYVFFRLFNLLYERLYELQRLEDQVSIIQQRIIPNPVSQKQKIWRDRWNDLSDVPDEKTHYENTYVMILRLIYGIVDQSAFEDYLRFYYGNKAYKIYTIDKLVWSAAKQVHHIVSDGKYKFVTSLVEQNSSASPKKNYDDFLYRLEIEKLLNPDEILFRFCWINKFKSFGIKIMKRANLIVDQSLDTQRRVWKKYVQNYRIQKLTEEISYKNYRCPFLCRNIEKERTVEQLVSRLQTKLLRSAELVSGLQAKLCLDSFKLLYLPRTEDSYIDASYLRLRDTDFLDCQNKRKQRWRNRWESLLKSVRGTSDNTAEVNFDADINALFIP

T2: Pst3 with C-terminal 3× Flag-tag (S. pombe, UniProt O74755 1-1154)
T2 construct: Pst3, Sin3 homolog of S. pombe, subunit of the SIN3L complex; PAH3, HID and HCR are resolved in the model; Endogenous protein; also called Pst3-Flag; Sin3 isoform Pst3; source: endogenous locus tagged, S. pombe; purified (ANTI-FLAG M2 resin, glycerol gradient); not shown: 3× Flag, C-terminal, kept
T2 sequence (looked up): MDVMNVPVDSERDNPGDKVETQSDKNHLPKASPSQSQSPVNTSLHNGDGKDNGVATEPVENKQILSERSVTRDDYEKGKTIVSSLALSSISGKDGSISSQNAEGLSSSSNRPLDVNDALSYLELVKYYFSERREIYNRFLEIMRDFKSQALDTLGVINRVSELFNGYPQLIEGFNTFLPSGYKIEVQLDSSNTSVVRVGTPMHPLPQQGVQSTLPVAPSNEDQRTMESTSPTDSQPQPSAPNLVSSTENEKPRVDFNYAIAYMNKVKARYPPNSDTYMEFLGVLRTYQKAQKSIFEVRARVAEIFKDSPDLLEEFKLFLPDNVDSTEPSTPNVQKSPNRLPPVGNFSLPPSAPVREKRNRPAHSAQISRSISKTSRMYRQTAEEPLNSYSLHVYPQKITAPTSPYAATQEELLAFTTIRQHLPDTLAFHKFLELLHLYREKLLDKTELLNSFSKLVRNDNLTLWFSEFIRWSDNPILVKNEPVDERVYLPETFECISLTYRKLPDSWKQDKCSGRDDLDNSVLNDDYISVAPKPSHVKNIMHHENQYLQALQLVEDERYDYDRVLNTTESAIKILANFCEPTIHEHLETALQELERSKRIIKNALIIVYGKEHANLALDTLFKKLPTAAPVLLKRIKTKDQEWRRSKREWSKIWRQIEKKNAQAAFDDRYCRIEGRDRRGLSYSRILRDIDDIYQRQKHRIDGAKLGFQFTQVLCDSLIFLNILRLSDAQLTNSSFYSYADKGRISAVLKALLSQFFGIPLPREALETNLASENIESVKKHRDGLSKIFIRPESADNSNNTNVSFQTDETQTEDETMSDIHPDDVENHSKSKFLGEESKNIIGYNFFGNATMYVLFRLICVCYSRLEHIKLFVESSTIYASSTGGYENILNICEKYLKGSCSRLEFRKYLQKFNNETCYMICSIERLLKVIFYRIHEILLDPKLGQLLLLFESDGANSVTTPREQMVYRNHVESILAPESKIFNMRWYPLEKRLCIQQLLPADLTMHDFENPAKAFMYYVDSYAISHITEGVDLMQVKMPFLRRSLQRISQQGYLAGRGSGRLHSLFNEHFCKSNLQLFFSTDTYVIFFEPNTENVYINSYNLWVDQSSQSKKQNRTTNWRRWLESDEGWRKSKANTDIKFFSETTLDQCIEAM

B1: WD40 domain-containing protein Prw1 (natural protein, S. pombe, UniProt O14021 1-431, looked up)
chain: MAVSAVPHPSKQAQASEEGINQEKCINEEYKIWKKNSPFLYDLIITRALEWPCMSLQWYPEQQIFAEHGYTEQKMFLGVRADVGKYLLAVASIQLPYLNQTVPPTTMEGASAGDESSLRVNISNLYSHPESVCSAKLMPQDDSCVATVGNYHNDVLVFDKESFESYSSASESPLKPKYRLTKHTQPCTSVCWNFLSKGTLVSGSQDATLSCWDLNAYNESDSASVLKVHISSHEKQVSDVRFHYKHQDLLASVSYDQYLHVHDIRRPDASTKPARSVHAHSGPIHSVAFNPHNDFILATCSTDKTIALWDLRNLNQRLHTLEGHEDIVTKISFSPHEEPILASTSADRRTLVWDLSRIGEDQPAEEAQDGPPELLFMHGGHTSCTIDMDWCPNYNWTMATAAEDNILQIWTPSRSIWGNEQLEEDATAYLS
notes: Prw1 of S. pombe, homolog of S. cerevisiae Ume1 and human RBBP4/7; N-terminal NEE box and C-terminal WD40 domain; two copies in SIN3L (Prw1, Prw1’), one in SIN3S; Endogenous protein; source: endogenous, S. pombe; co-purified with Pst3-3×Flag or Pst2-3×Flag (ANTI-FLAG M2 resin, glycerol gradient)
B2: Rxt3 (natural protein, S. pombe, UniProt O94707 1-351, looked up)
chain: MEEKTPENEQSKKTFDPKDSMKIEETSTNGSSQPSQPSNIKLSIGSILESSNDNGDPEYSENGMGNMNMNTLPMATSTPMSYTKQPSEAKYPNSVWERKGVSDQEENTSSVKRQKTLPTQSSGEEEAKYSHPGAPTATSADSISMESRPSNLSTSLSKTTSYPQFQVRQFVSPIISIDNSALEPFLNRYPASESLFPVTEYEYTPWLEFPLLYSSIGKFVRVTIDIKWLNAAINPRLCRREIWGTDVYTDDSDIATILAHCGCFSLLKPVRKIAVVDLYILPPLVHYKGTRKNQIESRSWSSRQDGISLKIKEVTWKPACASIFENSIHTLTLEERLQARLELSRSSTFKI
notes: Rxt3 of S. pombe, subunit of the Pst3 Lobe of the SIN3L complex; Endogenous protein; source: endogenous, S. pombe; co-purified with Pst3-3×Flag (ANTI-FLAG M2 resin, glycerol gradient)
B3: histone deacetylase Clr6 (enzyme, S. pombe, UniProt O59702 1-405, looked up)
chain: MGFGKKKVSYFYDEDVGNYHYGPQHPMKPHRVRMVHNLVVNYNLYEKLNVITPVRATRNDMTRCHTDEYIEFLWRVTPDTMEKFQPHQLKFNVGDDCPVFDGLYEFCSISAGGSIGAAQELNSGNAEIAINWAGGLHHAKKREASGFCYVNDIALAALELLKYHQRVLYIDIDVHHGDGVEEFFYTTDRVMTCSFHKFGEYFPGTGHIKDTGIGTGKNYAVNVPLRDGIDDESYESVFKPVISHIMQWFRPEAVILQCGTDSLAGDRLGCFNLSMKGHSMCVDFVKSFNLPMICVGGGGYTVRNVARVWTYETGLLAGEELDENLPYNDYLQYYGPDYKLNVLSNNMENHNTRQYLDSITSEIIENLRNLSFAPSVQMHKTPGDFTFENAEKQNIAKEEIMDERV
notes: Clr6, zinc-dependent class I histone deacetylase of S. pombe; two copies in SIN3L (Clr6, Clr6’), one in SIN3S; Endogenous protein; source: endogenous, S. pombe; co-purified with Pst3-3×Flag or Pst2-3×Flag (ANTI-FLAG M2 resin, glycerol gradient)

Key:
Details in all cases: both partners purified
[1] = target: T1, Pst2 with C-terminal 3× Flag-tag; test: cryo-EM structure; endogenous SIN3S complex purified from the Pst2-3×Flag S. pombe strain, cross-linked with 1 mM BS3; 20 mM HEPES pH 7.4, 50 mM NaCl, 2 mM DTT; 2.9 Å
[2] = target: T2, Pst3 with C-terminal 3× Flag-tag; test: cryo-EM structure; endogenous SIN3L complex purified from the Pst3-3×Flag S. pombe strain, cross-linked with 1 mM BS3; 20 mM HEPES pH 7.4, 50 mM NaCl, 2 mM DTT; 3.2 Å
Pst1 = target: T3, Pst1 (S. pombe, UniProt Q09750 1-1522); test: as above
T3 construct: Pst1, Sin3 homolog of S. pombe, endogenous subunit of the SIN3L complex; PAH3, HID and HCR are resolved in the model; Endogenous protein, untagged in the Pst3-Flag strain; only part of it is modelled in PDB 8I03; also called Sin3 isoform Pst1; Sin3 homolog Pst1; source: endogenous, S. pombe; co-purified with Pst3-3×Flag (ANTI-FLAG M2 resin, glycerol gradient)

[3] = target: B1; test: as above

T3 sequence (Q09750 whole entry, canonical isoform): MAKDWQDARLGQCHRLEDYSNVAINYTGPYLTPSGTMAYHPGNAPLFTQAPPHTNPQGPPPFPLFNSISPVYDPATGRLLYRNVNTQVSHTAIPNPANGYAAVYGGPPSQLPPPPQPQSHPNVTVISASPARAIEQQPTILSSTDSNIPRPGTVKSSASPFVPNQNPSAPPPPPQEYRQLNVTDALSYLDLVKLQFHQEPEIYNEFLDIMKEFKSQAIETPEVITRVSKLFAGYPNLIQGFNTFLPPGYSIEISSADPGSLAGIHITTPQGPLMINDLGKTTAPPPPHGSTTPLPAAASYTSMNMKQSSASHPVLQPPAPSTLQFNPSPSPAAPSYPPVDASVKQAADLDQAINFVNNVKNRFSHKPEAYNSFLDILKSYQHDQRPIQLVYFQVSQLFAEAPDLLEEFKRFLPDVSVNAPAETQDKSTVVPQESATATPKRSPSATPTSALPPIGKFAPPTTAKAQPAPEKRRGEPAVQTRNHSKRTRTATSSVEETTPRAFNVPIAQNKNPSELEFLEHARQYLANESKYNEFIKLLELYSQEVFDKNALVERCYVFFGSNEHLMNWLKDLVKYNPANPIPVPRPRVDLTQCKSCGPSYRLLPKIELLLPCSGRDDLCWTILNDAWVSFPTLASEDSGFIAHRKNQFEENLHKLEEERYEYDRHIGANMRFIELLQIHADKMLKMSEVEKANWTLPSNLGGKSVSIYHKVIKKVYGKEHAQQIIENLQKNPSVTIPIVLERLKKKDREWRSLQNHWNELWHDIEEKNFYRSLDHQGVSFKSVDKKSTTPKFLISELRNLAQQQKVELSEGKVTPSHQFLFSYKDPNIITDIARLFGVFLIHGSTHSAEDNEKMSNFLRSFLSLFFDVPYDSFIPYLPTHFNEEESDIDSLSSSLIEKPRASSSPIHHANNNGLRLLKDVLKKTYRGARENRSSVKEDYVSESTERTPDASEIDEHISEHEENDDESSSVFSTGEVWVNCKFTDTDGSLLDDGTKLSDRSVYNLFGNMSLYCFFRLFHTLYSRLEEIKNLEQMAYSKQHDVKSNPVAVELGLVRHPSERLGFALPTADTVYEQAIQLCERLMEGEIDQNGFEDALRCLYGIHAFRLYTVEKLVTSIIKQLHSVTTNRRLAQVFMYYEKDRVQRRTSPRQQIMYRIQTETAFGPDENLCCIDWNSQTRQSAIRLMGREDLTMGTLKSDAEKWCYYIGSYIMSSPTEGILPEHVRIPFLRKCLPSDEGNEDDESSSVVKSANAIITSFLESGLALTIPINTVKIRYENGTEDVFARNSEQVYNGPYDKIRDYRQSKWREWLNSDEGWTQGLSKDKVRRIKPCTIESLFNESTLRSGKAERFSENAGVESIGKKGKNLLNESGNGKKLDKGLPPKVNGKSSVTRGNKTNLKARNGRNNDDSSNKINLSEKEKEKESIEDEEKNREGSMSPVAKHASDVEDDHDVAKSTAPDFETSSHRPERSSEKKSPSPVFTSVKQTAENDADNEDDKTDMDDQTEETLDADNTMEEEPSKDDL

binding result [1]	binding result [2]	binding result (Pst1)	binding result [3]	Binder
binds	binds	binds		B1
	binds		binds	B2
binds	binds	binds		B3
